Assay results from patent US20090042849.

How the values were obtained:
cycloxygenase-2, P35355 = target: T1, cycloxygenase-2, P35355
T1 chain: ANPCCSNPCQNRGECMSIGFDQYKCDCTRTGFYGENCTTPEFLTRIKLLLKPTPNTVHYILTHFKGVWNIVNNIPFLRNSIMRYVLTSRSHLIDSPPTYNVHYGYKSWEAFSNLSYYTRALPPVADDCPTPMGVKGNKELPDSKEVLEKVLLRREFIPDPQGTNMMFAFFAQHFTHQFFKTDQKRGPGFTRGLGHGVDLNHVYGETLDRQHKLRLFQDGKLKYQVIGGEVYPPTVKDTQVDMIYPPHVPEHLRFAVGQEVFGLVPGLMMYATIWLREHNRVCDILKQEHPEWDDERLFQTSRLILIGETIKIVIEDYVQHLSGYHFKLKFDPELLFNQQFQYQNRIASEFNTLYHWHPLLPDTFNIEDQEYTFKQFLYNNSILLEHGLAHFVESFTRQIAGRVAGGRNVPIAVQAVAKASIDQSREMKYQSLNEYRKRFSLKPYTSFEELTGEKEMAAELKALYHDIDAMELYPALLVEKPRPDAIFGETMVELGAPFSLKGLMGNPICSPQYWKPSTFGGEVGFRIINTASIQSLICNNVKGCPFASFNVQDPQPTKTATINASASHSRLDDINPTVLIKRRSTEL

[1] = target: T2, cytosolic phospholipase A2, P50393
T2 chain: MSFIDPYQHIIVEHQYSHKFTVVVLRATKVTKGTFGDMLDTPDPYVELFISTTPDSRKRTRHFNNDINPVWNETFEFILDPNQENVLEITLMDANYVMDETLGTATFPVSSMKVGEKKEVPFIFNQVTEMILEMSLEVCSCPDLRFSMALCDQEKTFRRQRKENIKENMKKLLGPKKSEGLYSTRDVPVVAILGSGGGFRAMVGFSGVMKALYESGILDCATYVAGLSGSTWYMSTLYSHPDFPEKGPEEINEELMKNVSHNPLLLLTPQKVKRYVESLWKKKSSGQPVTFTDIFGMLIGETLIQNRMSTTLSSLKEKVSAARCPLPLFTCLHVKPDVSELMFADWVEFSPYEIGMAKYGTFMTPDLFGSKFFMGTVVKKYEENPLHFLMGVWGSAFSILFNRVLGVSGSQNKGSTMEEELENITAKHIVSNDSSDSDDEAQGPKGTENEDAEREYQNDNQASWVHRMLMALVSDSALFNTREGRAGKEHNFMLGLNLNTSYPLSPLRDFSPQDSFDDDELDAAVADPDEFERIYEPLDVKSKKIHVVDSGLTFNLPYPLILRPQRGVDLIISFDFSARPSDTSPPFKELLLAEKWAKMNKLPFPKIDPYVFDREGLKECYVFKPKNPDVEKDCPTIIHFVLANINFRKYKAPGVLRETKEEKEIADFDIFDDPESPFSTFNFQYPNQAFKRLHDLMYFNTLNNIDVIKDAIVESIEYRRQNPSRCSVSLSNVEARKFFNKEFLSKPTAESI

B1: 5-lipoxygenase (protein)
chain: MPSYTVTVATGSQWFAGTDDYIYLSLIGSAGCSEKHLLDKAFYNDFERGGRDSYDVTVDEELGEIYLVKIEKRKYRLHDDWYLKYITLKTPHDYIEFPCYRWITGEGEIVLRDGCAKLARDDQIHILKQHRRKELETRQKQYRWMEWNPGFPLSIDAKCHKDLPRDIQFDSEKGVDFVLNYSKAMENLFINRFMHMFQSSWHDFADFEKIFVKISNTISERVKNHWQEDLMFGYQFLNGCNPVLIKRCTELPKKLPVTTEMVECSLERQLSLEQEVQEGNIFIVDYELLDGIDANKTDPCTHQFLAAPICLLYKNLANKIVPIAIQLNQTPGEKNPIFLPTDSKYDWLLAKIWVRSSDFHIHQTITHLLRTHLVSEVFGIAMYRQLPAVHPLFKLLVAHVRFTIAINTKAREQLNCEYGLFDKANATGGGGHVQMVQRAVQDLTYSSLCFPEAIKARGMDNTEDIPYYFYRDDGLLVWEAIQSFTTEVVSIYYEDDQVVEEDQELQDFVKDVYVYGMRGRKASGFPKSIKSREKLSEYLTVVIFTASAQHAAVNFGQYDWCSWIPNAPPTMRAPPPTAKGVVTIEQIVDTLPDRGRSCWHLGAVWALSQFQENELFLGMYPEEHFIEKPVKEAMIRFRKNLEAIVSVIAERNKNKKLPYYYLSPDRIPNSVAI
15ELXA production (cycloxygenase-2, P35355): it interacted with COX2 in the cytosolic fraction (FIG. 11) to generate 15ELXA (FIG. 9A)
LTB4 production [1]: 5-lipoxygenase co-immunoprecipitated with cPLA2 (FIG. 10) and metabolized arachidonic acid, generated by cPLA2, into LTB4
